Substitutions are numbered along the chain they refer to.
T1: hNav1.7-loopB1-C1-D1-llama Fc (human)
T1 construct: whole entry: loops B1, C1, D1 joined by linkers, llama Fc; also called hNav1.7-loopB1-C1-D1-llfc
T1 chain: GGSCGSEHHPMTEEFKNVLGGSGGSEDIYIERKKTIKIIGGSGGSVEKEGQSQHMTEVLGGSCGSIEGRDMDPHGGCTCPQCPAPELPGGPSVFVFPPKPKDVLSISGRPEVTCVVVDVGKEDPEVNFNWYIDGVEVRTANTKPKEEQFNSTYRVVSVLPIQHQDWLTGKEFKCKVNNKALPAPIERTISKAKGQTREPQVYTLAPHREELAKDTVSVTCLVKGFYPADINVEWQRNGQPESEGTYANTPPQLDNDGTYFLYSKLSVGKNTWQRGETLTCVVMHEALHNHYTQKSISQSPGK

T2: hNav1.7-loopA3-llama Fc fusion (human)
T2 construct: also called hNav1.7-loopA3-llFc; loopA3-llamaFc chimera
T2 chain: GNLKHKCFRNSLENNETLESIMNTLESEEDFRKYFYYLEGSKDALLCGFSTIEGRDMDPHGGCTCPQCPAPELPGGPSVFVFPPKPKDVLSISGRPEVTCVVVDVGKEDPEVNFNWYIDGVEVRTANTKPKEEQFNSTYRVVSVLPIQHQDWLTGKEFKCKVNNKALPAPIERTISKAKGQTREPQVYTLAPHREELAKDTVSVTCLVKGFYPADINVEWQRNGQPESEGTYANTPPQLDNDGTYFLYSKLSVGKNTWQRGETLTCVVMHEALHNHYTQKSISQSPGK

T3: RatB1-C1-D1-llFc (rat)
T3 construct: also called rat Nav1.7 loopB1-C1-D1 llamaFc chimera
T3 chain: T1 chain with R32K, S52T, Q53E, H54Y, T56D, E57Y

T4: hNav1.5-B1-C1-D1-llFc (human)
T4 construct: also called Nav1.5 extracellular loop B1-C1-D1 llamaFc chimera
T4 chain: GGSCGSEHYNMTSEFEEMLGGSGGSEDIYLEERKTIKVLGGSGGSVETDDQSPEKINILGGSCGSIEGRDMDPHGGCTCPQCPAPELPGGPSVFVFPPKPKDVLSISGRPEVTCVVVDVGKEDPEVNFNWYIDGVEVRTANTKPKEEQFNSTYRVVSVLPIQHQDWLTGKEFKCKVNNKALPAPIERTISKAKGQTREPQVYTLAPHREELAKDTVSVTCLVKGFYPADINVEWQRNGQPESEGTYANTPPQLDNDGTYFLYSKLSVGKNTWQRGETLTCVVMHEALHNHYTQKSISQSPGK

B1: 9C3 (antibody, V domains shown)
VH: EVQLVQPGAELRNPGTSVKVSCKTSGYYFTSSDIQWVRQAPAQGLEWMGRIDPEDGATKYAPKFQGRVTFTADTFTRTAYVELSNLRSDDTAVYYCMTAGGEYWGKGTLVTVSS
VL: QPVLNQPSALSVSLGQTARITCQGGDFRNYYNNWYQQKPGQAPVLVIYEDSERPSGIPERFSGSSSGDTVILTVSRVQADDEADYYCQSSDSTDNAVFGGGTHLTVL
notes: chimeric llama-human, human IgG1 constant domains
B2: 9A11 (antibody, human IgG1, V domains shown)
VH: EVQLVQPGAEVRRPGAAVKVSCKASGFALISSYIDWVRQAPGQGLEWMGRIDPEDGGTSYAQKFQGRVTVTVDTATSTAYVELSSLRSDDTGVYFCMVGDSGYWGQGTQVTVSS
VL: ATMLTQSPGSLSVVPGESASISCKASQSLVHTDGKTYLSWLLQKPGQSPQRLIYQVSTRGSGVPDRVTGSGSGTDFTLKISGVKAEDAGVYYCAQTTYYPPTFGQGTKVELK
B3: 9G6 (antibody, human IgG1, V domains shown)
VH: EVQLVQPGAELTKPGASVKVSCNTSGYTFTGYYIDWVRQVPGEGLEWMGRIDPEDGDTKYAQKFQGRVTITADTSTTTAYMELSSLRSEDTAVYYCSLGVDYWGQGTQVTVSS
VL: B2 VL with A25T, T32S, S39Y, T58N, G60D, V67F, Y99D, P101V
B4: 9A1 (antibody, V domains shown)
VH: EVQLVQPGAELRNPGASVKVSCKASGDTFTDYYIHWVRQAPGQGLEWMGRIDPEDGGTKYTQKFQGRVTFTADTSTSTVYLELDSLRSEDTAVYYCVGDMDYWGKGTLVTVSS
VL: QTVVTQEPSLSVSPGGTVTLTCGLSSGSVTFGNYPSWYQQTPGQAPRTLIYTTNSRHSGVPSRFSGSISGNKATLTISGAQPEDEADFYCALSRVSGTYGTVFGGGTHLTVL
notes: as for B1
B5: scFv A3 (scFv, part only; not given: GS linker, not shown: small tags and cut ends)
scFv, part: QVQVQESGGGLVQPGGSLRLSCATSGFTFSNYYMSWVRQAPGKGPEWVSSIYSDLSTTYYADSVKGRFTISRDRAKNTLYLQMNSLKSEDTAVYYCARLSTVAGVDYWGKGTLVTVSSSYELTQSPSVSVALRQTAKITCGGNNIGSKSAQWYQQKPGQAPVLVIYADYRRPSGIPERFSGSNSGNTATLTISGAQAEDEADYYCQVWDSSANAAVFGGGTHLTVLG
B6: scFv B1 (scFv, part only; not given: GS linker, not shown: small tags and cut ends)
scFv, part: B5 scFv, part
B7: 9F10 (antibody, human IgG1, V domains shown)
VH: B2 VH with A79V
VL: ATMLTQSPGSLSVGPGESASISCKAGQSLTHPNGKTYLSWLLQKPGQSPRRLIYETSNRDPGVPDRFTGSGSGTDFTLRIVGVTVEDAGVYYCAQTTYFPIAFGQGTKVELK
B8: 9C12 (antibody, V domains shown)
VH: B2 VH with A79V
VL: ATMLTQSPASLSVVPGESASISCKASQSLVHSDGKTYLYWLLQKPGQSPQRLIYQVSNRGSGVPDRFTGSGSGTDFTLKISGVKAEDAGVYYCAQHTYYPPSFGSGTRLEIK
notes: as for B1
B9: mAb 6A1 (antibody, IgG1, V domains shown)
VH: EVQLVESGGGLVQPGGSLRLSCAASGFTFSRNAMTWVRQAPGKGLEWVSAISSTGNSITEADSVKGRFTISRDNAKNMLYLQMNSLKPEDTAVYYCAKLGGDTWYMEYWGQGTQVTVSS
VL: SYELTQSPSMSVALRQTAKITCGGNNIGSKSAQWYQQKPGQAPVLVIYADNRRPSGIPERFSGSNSGNTATLTISGAQAEDEADYYCQVWDSSANAVFGRGTHLTVLG

These binders were tested against human Nav1.7 (full length) (human) (UniProt Q15858) (assay: cell-based or functional assay).

| Binder | % inhibition of inward current following P02 voltage protocol, 10 µg/ml | % inhibition of inward current following P02 voltage protocol, 25 µg/ml | % inhibition of inward current following P02 voltage protocol, 100 µg/ml |
| --- | --- | --- | --- |
| B1 | 18.3% | 21.6% | 36.9% |
| B2 | 16% | 49.4% | 62.3% |
| B3 | 11.8% | 22.8% | 37.5% |
| B4 | 6.4% | 24.3% | 37.5% |

Each binder was assayed against Nt-GCGR-hFc (human) (UniProt P47871) (assay: scFv binding ELISA, periplasmic extract on coated Nt-GCGR).
Nt-GCGR-hFc (human), sequence (P47871 26-136): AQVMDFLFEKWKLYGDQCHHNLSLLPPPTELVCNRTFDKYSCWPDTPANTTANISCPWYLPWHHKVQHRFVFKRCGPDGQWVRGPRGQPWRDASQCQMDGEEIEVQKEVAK

| Binder | ScFv binding ELISA signal |
| --- | --- |
| B5 | 0.883 |
| B6 | 0.749 |

Molecular target: T1, hNav1.7-loopB1-C1-D1-llama Fc
Experiment: ELISA, coated loop-B1-C1-D1-llama Fc 20 ng/well, mAb titrated
Protocol: mAbs originating from the loopA3-llama Fc immunization were assayed for their affinity for hNav1.7-loopA3. Therefore, a Maxisorp plate was coated with 10 ng/well of loopA3-llamaFc chimera and incubated overnight at 4° C. The next day, the plate was blocked with PBS+1% casein for 2 hours at RT. Subsequently a concentration gradient of antibodies was applied (range 0.25 pM-66 nM) for another hour. Antibody binding to loopA3 was detected using a HRP-conjugated anti-human Fc antibody (Abcam, Ab7499) (incubation 1 hour at RT, dilution 1/5000 in PBS+0.1% casein), followed by TMB addition and OD620 nm measurement. EC50 values were determined using GraphPad Prism software. For comparison purposes a known hNav1.7-loopA3 binding monoclonal antibody, UCB_932 (US2011/0135662), was tested.
In a next experiment, the binding affinity of the loop-specific mAbs was determined and compared to reference mAbs as described in US2011/0135662 (for loop A3: UCB_932, for loopB1-C1-D1: UCB_983, for loopC3: UCB_1066; US2011/0135662). Affinities were determined using an ELISA with a loop-coating of 10 ng/well (loopA3-llama Fc), 20 ng/well (loop-B1-C1-D1-llama Fc) or 50 ng/well (loopC3-llama Fc). The remainder of the experimental setup was identical to abovementioned binding ELISAs. Most of the mAbs show pM affinity for the respective hNav1.7 extracellular loop they are binding. […] The EC₅₀ for the reference mAbs could not be determined (nd) from the ELISA data available because the binding was too weak.

| Binder | EC50 |
| --- | --- |
| B1 | 0.17 nM |
| B2 | 0.091 nM |
| B7 | 0.081 nM |
| B8 | 0.22 nM |
| B4 | 0.33 nM |

Molecular target: T2, hNav1.7-loopA3-llama Fc fusion
Experiment: binding ELISA on coated loop-llama Fc chimera (20 ng/well), OD620
Protocol: (§1) For all DNA-immunization derived mAbs the binding affinity for the various hNav1.7-loop-llama Fc chimeras was tested in a binding ELISA. Therefore, a Maxisorp plate (Nunc) was coated with 20 ng/well of hNav1.7-loopA3-llama Fc, hNav1.7-loopB1-C1-D1-llama Fc or hNav1.7-loopC3-llama Fc. Remainder of the ELISA setup is as described above. […] Only at very high concentration minor cross-reactivity is observed for some clones.

| Binder | binding result |
| --- | --- |
| B1 | binds |
| B7 | no binding (tested: about 66 nM) |
| B8 | no binding (tested: about 66 nM) |
| B4 | binds |

Molecular target: T1, hNav1.7-loopB1-C1-D1-llama Fc
Experiment: as above
Protocol: as §1

| Binder | binding result |
| --- | --- |
| B3 | binds |

These binders were tested against T5, Nt-GCGR-hFc (human, UniProt P47871 26-136) (assay: ELISA with a titration of biotin-Nt-GCGR (x axis) against the mAbs, OD620).
T5 construct: domain: N-terminal domain; also called Nt-GCGR-Fc; recombinant N-terminal domain of GCGR; not shown: hFc
T5 sequence (P47871 26-136): as above

| Binder | binding result |
| --- | --- |
| B9 | no binding (tested: about 20 ng/ml biotin-Nt-GCGR) |

Molecular target: T3, RatB1-C1-D1-llFc
Experiment: binding ELISA; the panel prints no target, by paragraph 562 the coated rat loop B1-C1-D1-llama Fc

| Binder | binding result |
| --- | --- |
| B1 | binds |
| B7 | binds |
| B8 | binds |
| B4 | binds |

Molecular target: T4, hNav1.5-B1-C1-D1-llFc
Experiment: binding ELISA; the panel prints no target, by paragraph 288 and paragraph 555 the coated hNav1.5 loop B1-C1-D1-llama Fc
Description: The therapeutic potency of an anti-hNav1.7 antibody will highly depend on the lack of binding to other Nay family members. Of particular interest is hNav1.5, which is expressed on cardiac muscle cells. As such, cross-reactive binding of hNav1.7 antibodies to hNav1.5 could lead to heart failure. To assay the specificity of the mAbs derived from DNA immunization for hNav1.7, the corresponding loopA3 and loopB1-C1-D1 sequences of hNav1.5 were cloned as llamaFc chimera and cross-reactivity was determined using a binding ELISA (FIG. 8). All clones, except clone 9A6 and 9H4, show no cross-reactivity to hNav1.5. In addition, cross reactivity for hNav1.2 was tested for the loopA3-binding clones 8A7 and 8B6 using hNav1.2 and hNav1.7 derived monomeric, GST-tagged loopA3 peptides (Abnova, H00006326-Q01 (hNav1.2) and H00006335-Q01 (hNav1.7)). Again, no cross-reactive binding was observed.

| Binder | binding result |
| --- | --- |
| B1 | no binding (tested: about 130 nM) |
| B2 | no binding (tested: about 130 nM) |
| B3 | no binding (tested: about 130 nM) |
| B7 | no binding (tested: about 130 nM) |
| B8 | no binding (tested: about 130 nM) |
| B4 | no binding (tested: about 130 nM) |

Reference: patent US20160207996A1 (ARGEN X N V, published 2016)
